Laboratory results as given in patent publication US20090093061A1.

Key:
Test in all cases: GroEL-490 bead column capture of denatured serum, ATP elution, LC-MS-MS
[1] = molecular target: myocardin-related transcription factor B (Homo sapiens) (UniProt Q9ULH7)
[2] = molecular target: baculoviral IAP repeat-containing 6 (Homo sapiens) (UniProt Q9NR09)
[3] = molecular target: H2A histone family, member X (Homo sapiens) (UniProt P16104)
[4] = molecular target: albumin precursor (Homo sapiens) (UniProt P02768)
[5] = molecular target: titin isoform novex-2 (Homo sapiens) (UniProt Q8WZ42)
[6] = molecular target: START domain containing 9 (Homo sapiens) (UniProt Q9P2P6)
[7] = molecular target: tumor protein p53 binding protein, 2 (Homo sapiens) (UniProt Q13625)
[8] = molecular target: NYD-SP11 protein (Homo sapiens)
[9] = molecular target: human immunodeficiency virus type I enhancer binding protein 2 (Homo sapiens) (UniProt P31629)
keratin 1 (Homo sapiens) = keratin 1 (Homo sapiens) (UniProt P04264)
[10] = molecular target: p47 protein isoform a (Homo sapiens) (UniProt Q9UNZ2)
[11] = molecular target: similar to KIAA2018 protein (Homo sapiens) (UniProt Q68DE3)
[12] = molecular target: kinesin family member 23 isoform 1 (Homo sapiens) (UniProt Q02241)
[13] = molecular target: hypothetical protein XP_378771 (Homo sapiens)
[14] = molecular target: similar to ataxin 2 binding protein 1 isoform gamma (Homo sapiens)
[15] = molecular target: SPRY domain-containing SOCS box protein SSB-4 (Homo sapiens) (UniProt Q96A44)
[16] = molecular target: alpha 2 type XI collagen isoform 3 preproprotein (Homo sapiens) (UniProt P13942)
[17] = molecular target: similar to zinc finger, CW-type with PWWP domain 1 (Homo sapiens)
[18] = molecular target: ankyrin repeat domain 26 (Homo sapiens) (UniProt Q9UPS8)
[19] = molecular target: titin isoform N2-A (Homo sapiens) (UniProt Q8WZ42)
[20] = molecular target: hypothetical protein FLJ21439 (Homo sapiens)
[21] = molecular target: leucine-rich repeat-containing G protein-coupled receptor 6 (Homo sapiens) (UniProt Q9HBX8)
[22] = molecular target: similar to CXYorf1-related protein (Homo sapiens)
[23] = molecular target: UDP glycosyltransferase 2 family, polypeptide B7 (Homo sapiens) (UniProt P16662)
[24] = molecular target: 3-hydroxyanthranilate 3,4-dioxygenase (Homo sapiens) (UniProt P46952)
[25] = molecular target: hypothetical protein FLJ12178 (Homo sapiens)
[26] = molecular target: RAN-binding protein 2-like 1 isoform 1 (Homo sapiens) (UniProt Q99666)
[27] = molecular target: retinoblastoma binding protein 8 isoform b (Homo sapiens) (UniProt Q99708)
bassoon (Homo sapiens) = bassoon (Homo sapiens) (UniProt Q9UPA5)
[28] = molecular target: hemicentin (Homo sapiens) (UniProt Q96RW7)
[29] = molecular target: SMC5 protein (Homo sapiens) (UniProt Q8IY18)
[30] = molecular target: KIAA0804 protein (Homo sapiens) (UniProt Q8N3P4)
[31] = molecular target: ceruloplasmin (ferroxidase) (Homo sapiens) (UniProt P00450)
[32] = molecular target: Rho GTPase activating protein 21 (Homo sapiens) (UniProt Q5T5U3)
[33] = molecular target: UDP glycosyltransferase 1 family, polypeptide A9 (Homo sapiens) (UniProt O60656)
UDP glycosyltransferase 1 family, polypeptide A9 (Homo sapiens), sequence (O60656 26-530): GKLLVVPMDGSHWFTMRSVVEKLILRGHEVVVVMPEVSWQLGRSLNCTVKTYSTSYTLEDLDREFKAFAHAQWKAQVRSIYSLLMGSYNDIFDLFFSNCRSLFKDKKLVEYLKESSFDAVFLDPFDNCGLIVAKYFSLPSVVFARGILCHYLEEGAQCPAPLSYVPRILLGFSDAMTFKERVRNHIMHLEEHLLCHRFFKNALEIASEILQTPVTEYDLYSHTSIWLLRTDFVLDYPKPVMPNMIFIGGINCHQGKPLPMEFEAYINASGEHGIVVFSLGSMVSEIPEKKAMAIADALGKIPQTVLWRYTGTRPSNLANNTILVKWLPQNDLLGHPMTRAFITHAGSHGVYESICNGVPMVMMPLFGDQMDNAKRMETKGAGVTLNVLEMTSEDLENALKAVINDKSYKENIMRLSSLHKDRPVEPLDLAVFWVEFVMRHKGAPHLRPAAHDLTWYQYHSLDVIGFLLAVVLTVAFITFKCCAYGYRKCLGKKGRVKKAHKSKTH

GroEL having Aspartate 490 substituted with Cysteine, biotinylated and conjugated onto NeutrAvidin beads, sequence (A1AJ51 whole entry D490C): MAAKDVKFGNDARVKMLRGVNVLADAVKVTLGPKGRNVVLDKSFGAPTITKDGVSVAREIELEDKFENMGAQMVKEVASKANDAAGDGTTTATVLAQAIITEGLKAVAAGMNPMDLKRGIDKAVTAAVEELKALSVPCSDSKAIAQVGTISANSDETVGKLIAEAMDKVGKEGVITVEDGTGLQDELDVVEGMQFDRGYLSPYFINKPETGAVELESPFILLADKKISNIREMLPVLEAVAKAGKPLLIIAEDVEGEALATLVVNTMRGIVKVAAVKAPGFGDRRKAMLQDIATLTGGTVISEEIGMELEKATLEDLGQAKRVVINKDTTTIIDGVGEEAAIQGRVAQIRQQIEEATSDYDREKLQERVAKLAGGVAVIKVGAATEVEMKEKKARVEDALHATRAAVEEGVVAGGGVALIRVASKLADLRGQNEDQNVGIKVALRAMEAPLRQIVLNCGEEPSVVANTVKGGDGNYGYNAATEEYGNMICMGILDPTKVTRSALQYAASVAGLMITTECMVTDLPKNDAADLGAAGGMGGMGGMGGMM
Rho GTPase activating protein 21 (Homo sapiens), sequence (Q5T5U3 whole entry): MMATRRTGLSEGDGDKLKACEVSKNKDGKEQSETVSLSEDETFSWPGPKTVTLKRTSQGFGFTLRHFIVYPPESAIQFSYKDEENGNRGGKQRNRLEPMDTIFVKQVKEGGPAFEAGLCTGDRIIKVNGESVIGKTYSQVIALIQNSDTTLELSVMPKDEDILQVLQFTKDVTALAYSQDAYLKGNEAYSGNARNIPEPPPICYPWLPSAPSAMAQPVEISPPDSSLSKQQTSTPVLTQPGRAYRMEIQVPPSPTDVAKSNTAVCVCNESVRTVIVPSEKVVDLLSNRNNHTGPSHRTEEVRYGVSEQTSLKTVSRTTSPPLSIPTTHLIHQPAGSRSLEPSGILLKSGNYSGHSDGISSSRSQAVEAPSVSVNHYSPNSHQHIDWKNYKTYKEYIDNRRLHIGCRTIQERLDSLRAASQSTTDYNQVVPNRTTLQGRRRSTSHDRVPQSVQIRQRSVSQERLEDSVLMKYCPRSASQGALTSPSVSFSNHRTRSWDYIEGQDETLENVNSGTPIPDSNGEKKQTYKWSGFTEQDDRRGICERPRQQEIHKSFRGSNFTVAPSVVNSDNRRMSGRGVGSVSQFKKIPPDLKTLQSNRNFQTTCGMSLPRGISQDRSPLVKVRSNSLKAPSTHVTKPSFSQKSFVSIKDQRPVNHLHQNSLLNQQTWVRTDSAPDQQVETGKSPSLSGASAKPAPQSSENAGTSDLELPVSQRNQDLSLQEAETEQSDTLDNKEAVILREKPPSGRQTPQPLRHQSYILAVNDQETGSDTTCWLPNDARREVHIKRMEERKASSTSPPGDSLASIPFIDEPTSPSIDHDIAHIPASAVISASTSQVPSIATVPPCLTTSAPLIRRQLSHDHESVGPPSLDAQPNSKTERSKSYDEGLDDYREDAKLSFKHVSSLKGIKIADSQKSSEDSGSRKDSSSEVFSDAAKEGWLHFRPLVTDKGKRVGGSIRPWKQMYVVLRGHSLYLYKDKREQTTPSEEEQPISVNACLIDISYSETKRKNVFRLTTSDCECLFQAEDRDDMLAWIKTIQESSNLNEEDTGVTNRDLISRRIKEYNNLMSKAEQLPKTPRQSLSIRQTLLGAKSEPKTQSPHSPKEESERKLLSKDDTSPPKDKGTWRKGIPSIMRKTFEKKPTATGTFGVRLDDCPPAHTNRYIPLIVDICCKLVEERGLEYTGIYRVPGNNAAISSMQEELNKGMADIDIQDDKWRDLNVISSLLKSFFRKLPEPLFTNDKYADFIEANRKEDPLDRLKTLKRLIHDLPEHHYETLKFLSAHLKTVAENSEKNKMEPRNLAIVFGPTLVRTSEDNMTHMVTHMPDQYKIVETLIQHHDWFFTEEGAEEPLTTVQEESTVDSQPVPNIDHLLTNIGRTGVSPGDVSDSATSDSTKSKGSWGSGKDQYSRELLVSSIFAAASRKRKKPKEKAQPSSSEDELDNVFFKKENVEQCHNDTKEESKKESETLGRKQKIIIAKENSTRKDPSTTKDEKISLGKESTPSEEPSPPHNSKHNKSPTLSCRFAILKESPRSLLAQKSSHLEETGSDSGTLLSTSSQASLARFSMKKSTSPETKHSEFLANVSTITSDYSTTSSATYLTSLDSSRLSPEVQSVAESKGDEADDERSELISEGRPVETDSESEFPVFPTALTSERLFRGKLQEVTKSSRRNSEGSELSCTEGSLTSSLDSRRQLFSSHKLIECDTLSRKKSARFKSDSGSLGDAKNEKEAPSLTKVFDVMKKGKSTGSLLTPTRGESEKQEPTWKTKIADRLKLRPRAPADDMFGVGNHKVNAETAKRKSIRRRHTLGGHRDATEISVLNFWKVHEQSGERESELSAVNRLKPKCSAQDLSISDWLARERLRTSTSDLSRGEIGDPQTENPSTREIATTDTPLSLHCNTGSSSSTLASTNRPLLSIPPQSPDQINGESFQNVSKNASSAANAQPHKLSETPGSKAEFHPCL
SMC5 protein (Homo sapiens), sequence (Q8IY18 whole entry): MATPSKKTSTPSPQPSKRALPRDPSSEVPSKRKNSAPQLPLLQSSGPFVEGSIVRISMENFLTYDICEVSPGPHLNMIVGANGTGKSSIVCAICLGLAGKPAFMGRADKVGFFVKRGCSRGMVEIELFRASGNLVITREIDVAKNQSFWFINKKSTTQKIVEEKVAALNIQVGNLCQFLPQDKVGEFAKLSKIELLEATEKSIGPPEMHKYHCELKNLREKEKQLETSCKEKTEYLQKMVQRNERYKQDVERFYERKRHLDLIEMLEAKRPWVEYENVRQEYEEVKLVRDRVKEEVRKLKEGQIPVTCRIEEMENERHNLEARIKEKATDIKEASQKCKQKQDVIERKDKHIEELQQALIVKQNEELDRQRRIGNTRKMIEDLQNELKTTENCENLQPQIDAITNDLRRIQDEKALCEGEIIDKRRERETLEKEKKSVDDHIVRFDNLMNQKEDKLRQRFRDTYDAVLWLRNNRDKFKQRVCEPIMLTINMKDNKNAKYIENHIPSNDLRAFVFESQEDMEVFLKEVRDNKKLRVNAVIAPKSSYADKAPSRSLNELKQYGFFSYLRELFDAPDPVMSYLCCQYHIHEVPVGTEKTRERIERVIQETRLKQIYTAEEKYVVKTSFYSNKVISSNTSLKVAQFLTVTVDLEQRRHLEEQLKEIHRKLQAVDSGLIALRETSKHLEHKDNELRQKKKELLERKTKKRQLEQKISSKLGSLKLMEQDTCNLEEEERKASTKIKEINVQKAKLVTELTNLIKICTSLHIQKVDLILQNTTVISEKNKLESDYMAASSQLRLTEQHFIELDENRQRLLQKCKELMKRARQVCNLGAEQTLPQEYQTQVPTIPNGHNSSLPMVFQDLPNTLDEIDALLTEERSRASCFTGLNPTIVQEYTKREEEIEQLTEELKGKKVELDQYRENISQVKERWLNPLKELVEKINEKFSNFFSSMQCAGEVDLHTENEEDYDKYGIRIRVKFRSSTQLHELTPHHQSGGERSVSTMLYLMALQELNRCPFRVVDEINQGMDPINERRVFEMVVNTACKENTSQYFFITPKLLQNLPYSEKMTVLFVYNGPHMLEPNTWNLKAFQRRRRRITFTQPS
UDP glycosyltransferase 2 family, polypeptide B7 (Homo sapiens), sequence (P16662 24-529): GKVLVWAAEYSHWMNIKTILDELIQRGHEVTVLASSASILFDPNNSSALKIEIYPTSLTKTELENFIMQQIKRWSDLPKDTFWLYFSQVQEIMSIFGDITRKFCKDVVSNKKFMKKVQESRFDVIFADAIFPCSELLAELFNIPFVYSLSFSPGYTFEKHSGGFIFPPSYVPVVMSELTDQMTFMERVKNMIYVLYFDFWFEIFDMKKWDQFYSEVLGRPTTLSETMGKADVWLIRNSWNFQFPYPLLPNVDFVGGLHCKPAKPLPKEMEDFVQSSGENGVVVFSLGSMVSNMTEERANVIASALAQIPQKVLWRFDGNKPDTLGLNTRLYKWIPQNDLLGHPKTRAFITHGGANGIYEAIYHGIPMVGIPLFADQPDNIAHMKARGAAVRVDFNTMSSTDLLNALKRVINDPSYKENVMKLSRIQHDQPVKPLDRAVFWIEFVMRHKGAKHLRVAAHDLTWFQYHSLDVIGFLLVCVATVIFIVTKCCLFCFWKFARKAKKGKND
similar to zinc finger, CW-type with PWWP domain 1 (Homo sapiens), sequence (Q504Y3 whole entry, the tested form may be a part): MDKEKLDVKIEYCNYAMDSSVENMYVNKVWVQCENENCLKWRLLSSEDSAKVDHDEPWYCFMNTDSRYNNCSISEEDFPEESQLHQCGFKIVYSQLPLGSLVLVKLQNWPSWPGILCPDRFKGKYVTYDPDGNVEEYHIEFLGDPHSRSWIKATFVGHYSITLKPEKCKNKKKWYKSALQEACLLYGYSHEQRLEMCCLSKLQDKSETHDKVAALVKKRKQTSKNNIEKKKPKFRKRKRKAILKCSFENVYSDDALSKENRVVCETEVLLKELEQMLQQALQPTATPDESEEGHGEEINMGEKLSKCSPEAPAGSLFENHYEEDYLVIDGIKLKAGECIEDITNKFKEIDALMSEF

Spectrum Count [1]: 16 count
Spectrum Count [2]: 113 count
Spectrum Count [3]: 41 count
Spectrum Count [4]: 475 count
Spectrum Count [5]: 56 count
Spectrum Count [6]: 10 count
Spectrum Count [7]: 9 count
Spectrum Count [8]: 11 count
Spectrum Count [9]: 14 count
Spectrum Count (keratin 1 (Homo sapiens)): 16 count
Spectrum Count [10]: 22 count
Spectrum Count [11]: 12 count
Spectrum Count [12]: 53 count
Spectrum Count [13]: 17 count
Spectrum Count [15]: 30 count
Spectrum Count [16]: 10 count
Spectrum Count [17]: 16 count
Spectrum Count [18]: 9 count
Spectrum Count [19]: 16 count
Spectrum Count [20]: 11 count
Spectrum Count [21]: 9 count
Spectrum Count [22]: 110 count
Spectrum Count [23]: 26 count
Spectrum Count [24]: 9 count
Spectrum Count [25]: 9 count
Spectrum Count [26]: 11 count
Spectrum Count [27]: 22 count
Spectrum Count (bassoon (Homo sapiens)): 12 count
Spectrum Count [28]: 10 count
Spectrum Count [29]: 9 count
Spectrum Count [30]: 13 count
Spectrum Count [31]: 19 count
Spectrum Count [32]: 11 count
Spectrum Count [33]: 13 count
Substance: GroEL having Aspartate 490 substituted with Cysteine, biotinylated and conjugated onto NeutrAvidin beads (from UniProt A1AJ51 1-548)
Spectrum Count [14]: 11 count
